In patent US20190382455A1 (Sanofi, published 2019):

How the values were obtained:
activated MMP-9 = target: T1, activated MMP-9 (UniProt P14780 107-707, limits assumed); test: SPR (Biacore T200), biotinylated fusion molecule captured on CAP chip, activated MMP-9 as analyte
T1 construct: Used as analyte in SPR

MMP-9 proform = target: T2, MMP-9 proform (UniProt P14780 20-707); test: SPR (Biacore T200), biotinylated fusion molecule captured on CAP chip, MMP-9 proform as analyte
T2 construct: Used as analyte in SPR; also called proform MMP-9; proform MMP9
T2 sequence (P14780 20-707 limits assumed): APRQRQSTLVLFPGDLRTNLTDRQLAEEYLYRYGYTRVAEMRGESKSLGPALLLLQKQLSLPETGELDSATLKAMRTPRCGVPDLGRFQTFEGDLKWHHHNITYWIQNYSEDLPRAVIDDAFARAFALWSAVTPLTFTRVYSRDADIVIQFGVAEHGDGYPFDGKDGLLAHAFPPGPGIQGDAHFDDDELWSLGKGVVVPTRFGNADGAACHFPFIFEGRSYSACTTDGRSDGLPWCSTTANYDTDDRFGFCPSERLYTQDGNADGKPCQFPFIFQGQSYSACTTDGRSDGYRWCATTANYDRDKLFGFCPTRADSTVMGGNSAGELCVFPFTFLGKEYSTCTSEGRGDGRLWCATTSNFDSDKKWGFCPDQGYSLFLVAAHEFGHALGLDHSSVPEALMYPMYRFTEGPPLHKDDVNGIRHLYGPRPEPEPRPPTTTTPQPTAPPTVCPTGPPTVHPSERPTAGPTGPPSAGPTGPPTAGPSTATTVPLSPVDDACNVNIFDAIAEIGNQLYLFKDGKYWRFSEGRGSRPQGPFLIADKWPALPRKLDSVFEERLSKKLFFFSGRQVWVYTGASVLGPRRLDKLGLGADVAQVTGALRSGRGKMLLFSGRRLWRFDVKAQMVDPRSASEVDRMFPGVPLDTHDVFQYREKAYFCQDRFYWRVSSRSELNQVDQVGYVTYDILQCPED

T1 sequence (P14780 107-707 limits assumed): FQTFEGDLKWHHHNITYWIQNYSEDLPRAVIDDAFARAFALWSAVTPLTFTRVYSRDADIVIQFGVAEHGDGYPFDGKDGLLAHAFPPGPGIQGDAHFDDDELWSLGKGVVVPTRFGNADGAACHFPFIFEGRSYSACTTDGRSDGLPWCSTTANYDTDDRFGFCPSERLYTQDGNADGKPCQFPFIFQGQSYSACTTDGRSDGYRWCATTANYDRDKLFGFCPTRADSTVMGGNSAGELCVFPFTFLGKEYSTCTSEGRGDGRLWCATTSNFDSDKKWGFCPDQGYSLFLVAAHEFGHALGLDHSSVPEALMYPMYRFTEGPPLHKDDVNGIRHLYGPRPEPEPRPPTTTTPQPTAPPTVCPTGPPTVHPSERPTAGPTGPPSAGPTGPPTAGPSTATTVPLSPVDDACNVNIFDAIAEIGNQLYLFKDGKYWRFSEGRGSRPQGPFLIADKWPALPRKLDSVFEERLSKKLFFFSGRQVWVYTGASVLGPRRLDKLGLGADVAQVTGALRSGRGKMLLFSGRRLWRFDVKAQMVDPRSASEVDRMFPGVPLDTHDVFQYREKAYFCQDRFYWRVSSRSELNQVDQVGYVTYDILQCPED

B1: fusion molecule of SEQ ID NO: 134 (designed binder)
chain: QDSTSDLIPAPPLSKVPLQQNFQDNQFQGKWYVVGVAGNTILREDKDPGKMNAAIYELKEDKSYDVTDVRFIRKKCHYYIDTFVPGSQPGEFTLGNIKSYPGTTSQLVRVVSTNYNQHAMVFFKIVRQNREIFWITLYGRTKELTSELKENFIRFSKSLGLPENHIVFPVPIDQCIDGGGGGSGGGGSQDSTSDLIPAPPLSKVPLQQNFQDNQFQGKWYVVGWAGNTALREDKDPPKMPAVIYELKEDKSYDVTDVQFPEKECIYSTITFVPGSQPGEFTLGGIKSSPGQTSHLVRVVSTNYNQHAMVFFKYVTQNREGFNIALYGRTKELTSELKENFIRFSKSLGLPENHIVFPVPIDQCIDGGGGGSGGGGSQDSTSDLIPAPPLSKVPLQQNFQDNQFQGKWYVVGEAGNLARREDKDPMKMMATIYELKEDKSYDVTEVRFRHKKCKYDIVTFVPGSQPGEFTLGLIKSDPGQTPELVRVVSTNYNQHAMVFFKKVVQNREYFWITLYGRTKELTSELKENFIRFSKSLGLPENHIVFPVPIDQCIDGGGGGSGGGGSQDSTSDLIPAPPLSKVPLQQNFQDNQFQGKWYVVGHAGNQWLREGRDPRKMWATIYELKEDKSYDVTDVDFAIKKCLYRITTFVPGSQPGEFTLGNIKSHPGGTSGLVRVVSTNYNQHAMVFFKFVIQNREAFFITLYGRTKELTSELKENFIRFSKSLGLPENHIVFPVPIDQCIDG
modifications: biotinylated with EZ-Link NHS-PEG4-Biotin for capture on the chip
notes: also called RA10680550
B1: no binding (tested: ≥1 µM) (activated MMP-9); no binding (tested: ≥1 µM) (MMP-9 proform).
